According to the nanobody polyreactivity screen of Harvey et al. (2022):

Assay: yeast display, Sf9 membrane polyspecificity reagent, FACS + sequencing; frameworks hold sequencing errors
In short: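 After 36–48 hours of galactose induction, yeast (Saccharomyces cerevisiae BJ5465) displaying a synthetic nanobody library were stained at 4 °C for 1 hour with 10% biotinylated, detergent-solubilized Sf9 membrane reagent. Streptavidin microbeads enriched the stained cells before FACS sorting into low and high (top ~1%) gates on anti-HA and streptavidin fluorescence. Each clone's polyreactivity label reflects its gate of origin.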

| Sequence | polyreactivity (PSR sort gate) |
| --- | --- |
| QVQLVESGGGLVQAGGSLRLSCAASGSIFTYYAMGWYRQAPGKERELVAGISGGGRTNYADSVKGRFTISRDNAKNTVYLQMNSLKPEDTAVFYCAADWSFSTIRYWRFDSDYWGQGTQVTVSS | high polyreactivity |
| QVQLVESGGGLVQAGGSLRLSCDASGSTFKNYAMGWYRQAPGKERELVAGINWYGGRTYYADSVKGRFTISRDNAKNTVFLQMNSLKPEDTAVYYCAAALPGYGDYYYWGQGTQVTVSS | high polyreactivity |
| QVQLVESGGGLVQAGGSLRLSCAASGFIFQKYVMGWSRQAPGKERELVAVISRSGDSTRYADSVKGRFTISRDNAKNTVYLQMNSLKPEDTAVFYCAAASAKFTGTGYYFWGQGTQVTVSS | high polyreactivity |
| QVQLVESGGGLVQAGGSLRLSCAASGSIFQYYVMGWYRQAPGKERELVAAIRRSGTTYYADSVKGRFTISRDNAKNTVYLQMNSLNPEDTAVYYCNKVRGQEPSNYDYWGQGTQVTVSS | low polyreactivity |
| QVQLVESGGGLVQAGGSLRLSCAASGRTFNYYAMAWYRQAPGKERELVAAISYSGGSTYYADSVKGRFTISRDNAKNTVYLQMNSLKPEDTAVYYCAVVIKWRSSYVYSYYYWGQGTQVTVSS | high polyreactivity |
| QVQLVESGGGLVQAGGSLRLSCAASGSTFITYAMGRYRQAPGKERELVAAIRWSGGGTYYADSVKGRFTISRDNAKNTVYLQMNSLKPEDTAVYYCAADHFNYTTGRDYWGQGTQVTVSS | low polyreactivity |
| QVQLVESGGGLVQAGRSLRLSCAASGSILGTYAMGWYRQAPGKERELVAAISSSGRTSYADSVKGRFTISRDNAKNTVYLQMNSLKPEDTAVYYCNASNYIVLINDPDAAPWLYDYWGQGTQVTVSS | low polyreactivity |
| QVQLVESGGGLVQAGGSLRLSCAASGRTFRWYAMGWYRQAPGKERELVATITSGGSTNYADSVKGRFTISRDNAKNSVYLQMNSLKPEDTAVYYCAAWSYAYYYRLRYVSHDYWGQGTQVTVSS | high polyreactivity |
| QLQLVESAVGLDQAVDILRLSSAASGFIFPGNMGWYRKAPGKETELVAAISWSGGSTRYADSVKGRFTISRDNAKNTVYLQMNSLKPEDTAVYYCAASLSGKRFNKRYYWGQGTQVTVSS | high polyreactivity |
| QVQLVESGGGLVQAGGSLRLSCAASGSIFGYAMGWYRQAPGKERELVAAISFSGVSTYYADSVKGRFTISRDNAKNTVYLQMNSLKPEDTAVYYCNAYSDGDEDYWGQGTQVTVSS | low polyreactivity |
| QVQLEESGGGLVQAGGSLRLSCAASGIIFPVYAMGWYRQAPGKERELVAAITRSGGITYYADSVKGRFTISRDNEKNTVYLQMNSLKPEDTAVYDCAASVYSLSRRSWMDYWGQGTQVTVSS | low polyreactivity |
| QVQLVESGGGLVQAGGSLRLSCAASGYTFPRYTMGWYRQAPGKERELVAAINWSGGSTYYADSVKGRFTISRDNAKNTVYLQMNSLKPEDTAVYYCAAPVFHLYTDRMGYWGQGTQVTVSS | high polyreactivity |
| QVQLVESGGGLVQAGGSLRLSCAASGSIFARYAMGWYRQAPGKERELVATISYRGSSTYYADSVKGRFKISRDNAKNTVYLQMNRLKPEDTAVYSCAARTYRRIYAYYRLDYWGQGTQVTVSS | low polyreactivity |
| QDQLVESGGGLVQAGGSLRLICAASGRTFYQYVMGWYRQAPGKERELVAAIRSGGNTYYADSVKGRFTISRDNAKNTVYLQMNSLKPEDTAVYYCAVQRGYYRYRLGRYGYDYWGQGTQVTVSS | high polyreactivity |
| QVQLVESGGGLVQAGGSLRLSCAASGITFRGYAMGWYRQAPGKERELVAAINSGGSTNYADSVKGRFTISRDNAKNTVYLQMNSLKPEDTAVYYCAAGWYYYWGNYLSYAYDYWGQGTQVTVSS | high polyreactivity |
| QVQLVESGGGLVQAGGSLRLSCAATGRNFVYNAMGWYRQAPGKERELVAAITWGGGSTYYADSVKGRFTISRDYAKNTVYLQMNSLKPEDTAVYYCAARGGSYPQDHSPYYEYDYWGQGTQVTVSS | low polyreactivity |

| Sequence | polyreactivity (PSR sort gate) |
| --- | --- |
| QVQLVESGGGLVQAGGSLRLSCAASGSIFFYYAMGWYRQAPGKERELVATINWSGGSTYYADSVKGRFTISRDNAKNTVYLQMNSLKPEDTAVYYCAAKDITLPGTMDSWGQGTQVTVSS | low polyreactivity |
| QVQLVESGGGLVQAGCSLRLSCASSGGIFSWYAMGRYRQAPGKEREFVAAISWRGGRTYYADSVKGRFTISRDNAKNTVYLQMNSLKPEDTAVYYCAVANRAGEDDYWGQGSQVTVSS | high polyreactivity |
| QVQLVESGGGFVQAGGSLRLSCAASGYTFDHNAMGWYRQAPGKERELVAAISLTGSSTYYADSVKGRFTISRDNANNNVYLQMNSLKPEDTAVYYCAAVYHQAFKYKFNYWGQGTQVTVSS | low polyreactivity |
| QVQLVESGGGLVQAGGSLRLSCAASGFIFYRYAMGWYRQAPGKERELVAAIRGGGSTYYADSVKGRFTISRDNAKTTVYLQMNSLKPEDTAVYYCNAVYGVRPNRYHYDYWGQGTQVTVSS | low polyreactivity |
| QVQLVESGGGLVQAGGSLRLSCAASGSTFWYYVMGWYRQAPGKERELVAAISIVGSTYYADSVKGRFTISRDNAKNTVYLQMNSLKPEDTAVYYFNAGYFRGSNAIKVRLTYDHWGQGTQVTVSS | low polyreactivity |
| QVQLVESGGGLVQAGGSLRLSCAASGRTFYFYTKGWYRQAPGKERELVATAITSGGSTNYADSVKGRFTISRDNAKNTVYLQMNSLKPEDTAVYYCNARYTYLWSSLYYWGQGTQVTVSS | low polyreactivity |
| QVQLVDSGGGLVQAGGSLRLSCAASGRIFGQYAMGWYRDATGKERELVAAISWRGGTTYYADSVKGRFTISRDNAKNTVYLQMNSLKPEDTAVFYCNADVWVYPYDYWGQGTQVTVSS | low polyreactivity |
| HVQLQESGGVLVQARGSLRLSCAASGNISYSRNMGWYRQAPGKERELVDAIDRGAITYYADSVKGRFTISRDNANNTVYLQIYSLKPEDSAVYYCAAEYHDRWDHRYWGQGSQVTVSS | high polyreactivity |
| QVQLVESGGGLVQAGGSLRLSCAASGRNFIVNAMGWYRQAHGKEREFVAAITSRGGITYYADSVKGRFTISRDNAKNTVYLQMNSLKPEDTAVYYCAAGYITWGSGNWVVTPYDYWGQGTQVTVSS | high polyreactivity |
| QVQLVESGGGLVQAGGSLRLSCAASGRIFGYNPMGWYRQAPGKERELVAAITTSGGSTYYADSVKGRFTISRDNAKNTVYLQMNSQKPEDTAVYYCARDSLQVFYPYASDDYWGQGTQVTVSS | low polyreactivity |
| QVQLVESGGGLVQAGGSLRLSCAASGSTFRLYAMGWYRQAPGKERELVAAISYSGGSTYYADSVKGRFTISRDNAKNTVYLQMNSLKPEDTAVYYCNAVRRHGGYYDYGYWGQGTQVTVSS | high polyreactivity |
| QVQLVESGGGLVQAGGSLRLSCAASGSIFRPKAMGWYRQAPGKERELVAAINTSDDSTYYADSVKGRFTISRDNAKNSVYLQMNSLKPEDTAVYYCAAEYYAYPYGDYYDYWGQGTQVSVSS | low polyreactivity |
| QVQLVESAGGLVQAGGSLRLICAASGSNFRRYAMGWYRQAPGKERELVAAITENTTSTNYADSVKGRFTISRDNAKNTVYLQMNSLKPEDTAVYYCAAETFATSGEMYYWGQGTQVTVSS | low polyreactivity |
| QVQLVESCGGLVQAGGILRLSCAAYGRTFYKNAIGWYTQAPGKERELVAAMSSRGGRTTYADSVKGRFTISRDNAKYTVYLQMTSLKPEDTAVYYCAADWAQVYHGTPKYYYWGQGTQVTVSS | high polyreactivity |
| QVQLVESGGGLVQDGGSLPLSCAASGHIFIYYTMGWYRQAPGKERELVAGITIGGSTNYADSVKGRFTISRDNAQNTVYLQMNSLKPEDTAVYYCSTTWYLVASWYVAIFDYWGQGTQVTVSS | low polyreactivity |
